For three substances, response (Absorbance (450 nm)) results are on record in paper PMC10746679.

One experiment deals with Full-length fibronectin (UniProt P02751). The experiment in a line: solid-phase binding assay. As to conditions: FN-FL 25 μg/ml coated on plate, read off a plot.
Experiment [1] deals with 70-kDa N-terminal FN fragment (FN70). Kind of experiment: solid-phase binding assay. The following applies: FN70 25 μg/ml coated on plate, read off a plot.
The mark [2] stands for this setting: [HSP90α] 2.5 µM (read from x axis), parent: est. 1.4.
The mark [3] stands for this setting: [HSP90α] about 0.31 µM (read from x axis), parent: est. 1.1.
The mark [4] stands for this setting: [HSP90α] about 0.63 µM (read from x axis), parent: est. 1.3.
Setting [5] is: [HSP90α] about 1.25 µM (read from x axis), parent: est. 1.4.

Chain of Full-length fibronectin (P02751 32-2477): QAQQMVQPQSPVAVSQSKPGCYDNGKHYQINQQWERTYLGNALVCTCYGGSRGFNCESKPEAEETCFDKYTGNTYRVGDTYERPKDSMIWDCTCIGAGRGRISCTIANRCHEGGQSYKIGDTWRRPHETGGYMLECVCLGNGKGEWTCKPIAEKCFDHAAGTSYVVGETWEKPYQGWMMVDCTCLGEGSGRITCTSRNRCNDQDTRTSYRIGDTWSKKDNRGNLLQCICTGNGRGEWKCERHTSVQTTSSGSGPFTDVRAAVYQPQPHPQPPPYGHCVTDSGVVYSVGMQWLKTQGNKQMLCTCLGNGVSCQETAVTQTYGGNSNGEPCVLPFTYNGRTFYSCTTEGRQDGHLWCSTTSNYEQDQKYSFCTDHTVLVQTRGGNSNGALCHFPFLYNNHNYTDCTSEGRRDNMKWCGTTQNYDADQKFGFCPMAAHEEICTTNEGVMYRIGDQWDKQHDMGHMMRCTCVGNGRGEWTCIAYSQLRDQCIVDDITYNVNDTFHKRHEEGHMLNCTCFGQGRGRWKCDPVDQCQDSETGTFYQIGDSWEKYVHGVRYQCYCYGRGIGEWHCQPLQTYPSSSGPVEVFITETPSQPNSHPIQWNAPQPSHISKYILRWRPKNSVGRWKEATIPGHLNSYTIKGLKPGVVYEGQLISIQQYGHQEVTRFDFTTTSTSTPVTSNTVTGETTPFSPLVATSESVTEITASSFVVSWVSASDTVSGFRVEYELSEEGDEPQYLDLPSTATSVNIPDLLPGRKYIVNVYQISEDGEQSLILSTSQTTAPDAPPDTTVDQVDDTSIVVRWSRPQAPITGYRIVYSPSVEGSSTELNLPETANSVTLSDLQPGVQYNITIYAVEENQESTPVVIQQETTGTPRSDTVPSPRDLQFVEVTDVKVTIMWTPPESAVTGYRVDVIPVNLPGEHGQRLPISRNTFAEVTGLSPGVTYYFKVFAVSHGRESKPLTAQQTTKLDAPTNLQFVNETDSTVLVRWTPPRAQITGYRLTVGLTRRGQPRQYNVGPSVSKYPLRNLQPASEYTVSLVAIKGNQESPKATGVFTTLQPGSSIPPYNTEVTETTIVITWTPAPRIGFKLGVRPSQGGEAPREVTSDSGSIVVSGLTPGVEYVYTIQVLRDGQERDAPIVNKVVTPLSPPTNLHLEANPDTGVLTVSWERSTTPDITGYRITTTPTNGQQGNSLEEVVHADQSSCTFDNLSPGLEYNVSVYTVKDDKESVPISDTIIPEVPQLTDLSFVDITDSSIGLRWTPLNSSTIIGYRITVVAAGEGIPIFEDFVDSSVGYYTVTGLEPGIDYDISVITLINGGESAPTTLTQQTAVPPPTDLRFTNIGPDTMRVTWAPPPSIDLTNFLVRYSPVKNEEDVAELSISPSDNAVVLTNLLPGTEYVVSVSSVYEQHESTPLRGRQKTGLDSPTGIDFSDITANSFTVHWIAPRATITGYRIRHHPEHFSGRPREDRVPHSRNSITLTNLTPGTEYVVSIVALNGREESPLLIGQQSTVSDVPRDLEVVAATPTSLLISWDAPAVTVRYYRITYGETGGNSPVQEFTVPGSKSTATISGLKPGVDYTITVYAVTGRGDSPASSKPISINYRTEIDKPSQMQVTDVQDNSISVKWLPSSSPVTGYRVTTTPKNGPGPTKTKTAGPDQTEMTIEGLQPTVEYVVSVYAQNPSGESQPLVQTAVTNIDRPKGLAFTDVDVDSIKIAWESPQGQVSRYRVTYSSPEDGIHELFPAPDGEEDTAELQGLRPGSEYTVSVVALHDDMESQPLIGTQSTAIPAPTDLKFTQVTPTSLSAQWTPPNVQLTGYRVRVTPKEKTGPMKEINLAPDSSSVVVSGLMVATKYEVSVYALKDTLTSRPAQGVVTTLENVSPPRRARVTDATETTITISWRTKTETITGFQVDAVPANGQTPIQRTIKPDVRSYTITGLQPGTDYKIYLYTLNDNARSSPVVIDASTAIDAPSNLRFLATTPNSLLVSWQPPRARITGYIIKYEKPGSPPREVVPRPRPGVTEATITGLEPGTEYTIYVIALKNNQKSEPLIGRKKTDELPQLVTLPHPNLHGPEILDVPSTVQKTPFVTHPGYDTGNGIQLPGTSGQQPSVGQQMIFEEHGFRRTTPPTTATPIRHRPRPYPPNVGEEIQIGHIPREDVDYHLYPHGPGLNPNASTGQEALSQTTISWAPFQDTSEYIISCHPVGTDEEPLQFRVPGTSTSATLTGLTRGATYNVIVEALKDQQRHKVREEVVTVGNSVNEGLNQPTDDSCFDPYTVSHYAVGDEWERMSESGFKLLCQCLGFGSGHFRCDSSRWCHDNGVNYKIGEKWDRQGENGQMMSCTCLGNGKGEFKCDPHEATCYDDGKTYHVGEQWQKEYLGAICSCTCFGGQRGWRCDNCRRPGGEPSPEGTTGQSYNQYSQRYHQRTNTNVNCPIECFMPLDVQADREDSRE

In the case of “Recombinant full-length wild type His-HSP90α, P07900 F352A; Y528A”, the response (Absorbance (450 nm)) in the experiment with Full-length fibronectin (setting [2]) is 0.53; with Full-length fibronectin ([HSP90α] about 0.31 µM (read from x axis), parent: est. 1.0), 0.36; in the experiment with Full-length fibronectin ([HSP90α] about 0.63 µM (read from x axis), parent: est. 1.25), 0.45; with Full-length fibronectin ([HSP90α] about 1.25 µM (read from x axis), parent: est. 1.2), 0.44.
Regarding “Recombinant full-length wild type His-HSP90α (from UniProt P07900) Y528A”, the response (Absorbance (450 nm)) turned out to be 1.1 in experiment [1] (setting [2]), 0.82 in experiment [1] (setting [3]), 0.93 in experiment [1] (setting [4]) and 1.1 in experiment [1] (setting [5]).
As to “Recombinant full-length wild type His-HSP90α (from UniProt P07900) F352A; Y528A”, the response (Absorbance (450 nm)) was determined as 1.1 in experiment [1] (setting [2]), 0.72 in experiment [1] (setting [3]), 0.83 in experiment [1] (setting [4]) and 0.99 in experiment [1] (setting [5]).
